“And” between values parts separate entries of the source, which are not always exact repeats. Identical values can stand only once.
Assays:
[1] = molecular target: soluble synaptotoxic Aβ in aqueous human AD brain extract (human, UniProt P05067 18-701); assay: cell-based or functional assay
[2] = molecular target: T1, synthetic Aβ protofibrils (Aβ1-42-derived protofibrils) (UniProt P05067 672-713); assay: binding profile column of Table 5
T1 construct: domain: Aβ1-42; Multimeric assembly; also called PF; PFs

[3] = molecular target: T2, synthetic Aβ-derived diffusible ligands (ADDLs) (UniProt P05067 672-713); assay: binding profile column of Table 5
T2 construct: domain: Aβ1-42; Oligomeric assembly; also called synthetic Aβ oligomers

monomeric Aβ = molecular target: T3, monomeric Aβ (UniProt P05067 672-713); assay: binding profile column of Table 5
T3 construct: also called Aβ monomer; Aβ1-40 monomer and/or Aβ1-42 monomer
T3 sequence (P05067 672-713): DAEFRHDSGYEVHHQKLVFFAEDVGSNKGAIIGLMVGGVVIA

Chain of soluble synaptotoxic Aβ in aqueous human AD brain extract (P05067 18-701): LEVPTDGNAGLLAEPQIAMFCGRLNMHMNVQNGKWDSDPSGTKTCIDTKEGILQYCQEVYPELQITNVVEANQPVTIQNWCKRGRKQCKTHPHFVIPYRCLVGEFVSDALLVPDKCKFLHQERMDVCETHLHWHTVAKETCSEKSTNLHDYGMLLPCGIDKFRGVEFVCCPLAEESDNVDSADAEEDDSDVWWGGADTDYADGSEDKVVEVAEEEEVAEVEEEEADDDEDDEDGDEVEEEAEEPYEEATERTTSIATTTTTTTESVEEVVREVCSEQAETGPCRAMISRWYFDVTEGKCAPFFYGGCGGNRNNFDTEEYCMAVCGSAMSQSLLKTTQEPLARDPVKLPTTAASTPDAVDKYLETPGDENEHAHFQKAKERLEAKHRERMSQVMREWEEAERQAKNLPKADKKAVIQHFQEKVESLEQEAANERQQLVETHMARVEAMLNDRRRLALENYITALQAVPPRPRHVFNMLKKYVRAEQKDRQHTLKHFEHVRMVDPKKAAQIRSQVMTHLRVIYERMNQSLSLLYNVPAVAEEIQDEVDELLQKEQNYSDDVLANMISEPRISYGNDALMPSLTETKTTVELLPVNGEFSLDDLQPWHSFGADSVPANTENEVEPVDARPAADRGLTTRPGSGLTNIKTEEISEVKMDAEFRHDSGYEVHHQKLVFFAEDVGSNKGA
T2 sequence (P05067 672-713 limits assumed): as the sequence (P05067 672-713) above
T1 sequence (P05067 672-713 limits assumed): as the sequence (P05067 672-713) above

B1: rB24 (recombinant B24, human IgG1 LALA) (antibody, V domains shown)
VH: EVQLLESGGGLVQPGGSLRLSCAASGFTFSSYAMTWVRQAPGEGLEWVSTISGSGIRTYYADSVKGRFTISRDNSKNTMYLQMNSLRAEDTAVYYCAKDGLTGDRRWYFDLWGRGTLVTVSS
VL: EIVMTQSPATLSLSPGERATLSCRASQSVSSSYFSWYQQKPGQAPRLLIYGASTRATGIPARFSGSGSGTDFTLTISSLQPEDFAVYYCQQDSNLPLTFGGGTKVEIKR
What does the source list for B1?
EC50 of neuritotoxicity protection, iN cellular assay, Mean [1]: 3.97 µg/mL; EC50 of neuritotoxicity protection, iN cellular assay, Run15 [1]: 2.53 µg/mL; EC50 of neuritotoxicity protection, iN cellular assay, Run17 [1]: 5.4 µg/mL

B2: rC11 (recombinant C11, human IgG1 LALA) (antibody, V domains shown)
VH: QVQLQESGPGLVKPSETLSLTCTVSGGSISSYYWSWIRQPPGKGLEWIGSIYYSGTTKYNPSLKSRVTISVGTSKNQFSLKLNSVTAADTAVYYCARDNWGSRFDYWGQGTLVTVSS
VL: DIQMTQSPSSLSASVGDRVTITCRASQGIRNDLGWYQQKPGKAPTLLIYAASSLQSGVPSRFSGSGSGTDFTLTISSLQPEDFATYYCLQDFNYPYTFGQGTKLEIKR
Which results are given for B2?
EC50 of neuritotoxicity protection, iN cellular assay, Mean [1]: 2.79 µg/mL; EC50 of neuritotoxicity protection, iN cellular assay, Run16 [1]: 3.58 µg/mL and 2.19 µg/mL; EC50 of neuritotoxicity protection, iN cellular assay, Run17 [1]: 2.58 µg/mL

B3: rB73 (recombinant B73, human IgG1 LALA) (antibody, V domains shown)
VH: QLQLQMSGPGLVKPSETLSLTCTVSGGSISSSSYYWGWIRQSPGKGLEWIGSIYYSGRTYYNPSLKSRVTISVDTSKNQFSLKLSSVTAADTAMYYCARRSSGRPYYWGQGTLVTVSS
VL: QAVVTQESALTTSPGGTVILTCRSSTGAVTTSNYANWVQEKPDHLFTGLIGETNNRAPGVPVRFSGSLIGDKAALTITGAQTEDDAMYFCALWYSTHWVFGGGTKLTVLG
B3 was tested. Which “EC50 of neuritotoxicity protection, iN cellular assay, Mean” value [1] did it give?
The value was 1.94 µg/mL.

What about the “EC50 of neuritotoxicity protection, iN cellular assay, Run10” value [1] of the same binder?
The value was 1.98 µg/mL.

And the “EC50 of neuritotoxicity protection, iN cellular assay, Run11” value [1]?
The value was 1.97 µg/mL.

And the “EC50 of neuritotoxicity protection, iN cellular assay, Run12” value [1]?
The value was 1.49 µg/mL.

And the “EC50 of neuritotoxicity protection, iN cellular assay, Run14” value [1]?
The value was 2.32 µg/mL.

B4: rB28 (recombinant B28, human IgG1 LALA) (antibody, V domains shown)
VH: QVQLVESGGGVVQPGRSVRLSCAATGFTFSSYGMHWVRQAPGKGLEWVAVIWFDGSNEYYADSVRGRFTISRDNSKNTLYLQMNSLRAEDTAVYYCARRGRVGVTRNYYYYNMDVWGQGTTVTVSS
VL: AIQMTQSPSSLSASVGDRVTITCRASQGIRNDLGWFQQKPGKAPKLLIYPASSLQSGVPSRFSGSGSDTDFTLTISSLQPEDFATYYCLQDYNFPFTFGPGTKVDIKR
What does the source list for B4?
EC50 of neuritotoxicity protection, iN cellular assay, Mean [1]: 1.53 µg/mL; EC50 of neuritotoxicity protection, iN cellular assay, Run11 [1]: 1.76 µg/mL; EC50 of neuritotoxicity protection, iN cellular assay, Run12 [1]: 1.34 µg/mL; EC50 of neuritotoxicity protection, iN cellular assay, Run13 [1]: 1.5 µg/mL

B5: B75 (hybridoma-purified mAb) (antibody, V domains shown)
VH: QVQLVESGGGVVQPGRSLRLSCAASGFTFSSYGMHWVRQAPGKGLEWVAVIWYDGSYKYYADSVKGRFTISRDNSKNTLYLQMNSLRVEDTAVYYCAREGRTYYDFLTGYFDFWGQGTLVTVSS
VL: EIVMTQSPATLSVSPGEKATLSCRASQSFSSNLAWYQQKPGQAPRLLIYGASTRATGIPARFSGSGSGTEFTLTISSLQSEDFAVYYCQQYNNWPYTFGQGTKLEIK
What does the source list for B5?
EC50 of neuritotoxicity protection, iN cellular assay, Mean [1]: 2.05 µg/mL; EC50 of neuritotoxicity protection, iN cellular assay, Run13 [1]: 2.05 µg/mL

B6: rB75 (recombinant B75, human IgG1 LALA) (antibody, V domains shown)
VH: B5 VH
VL: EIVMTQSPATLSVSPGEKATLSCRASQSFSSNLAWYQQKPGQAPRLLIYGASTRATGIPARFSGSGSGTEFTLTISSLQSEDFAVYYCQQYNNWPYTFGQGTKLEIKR
How did the “EC50 of neuritotoxicity protection, iN cellular assay, Mean” value [1] turn out when B6 was run?
Its value is 4.08 µg/mL.

And the “EC50 of neuritotoxicity protection, iN cellular assay, Run15” value [1]?
Its value is 2.11 µg/mL.

What about the “EC50 of neuritotoxicity protection, iN cellular assay, Run16” value [1] of the same binder?
Its value is 6.04 µg/mL.

B7: C11 (hybridoma-purified mAb) (antibody, V domains shown)
VH: B2 VH
VL: DIQMTQSPSSLSASVGDRVTITCRASQGIRNDLGWYQQKPGKAPTLLIYAASSLQSGVPSRFSGSGSGTDFTLTISSLQPEDFATYYCLQDFNYPYTFGQGTKLEIK
notes: Purified from a Trianni mouse hybridoma (FusC); also called purified clone C11
Does B7 bind [2]?
Result: no binding

Does B7 bind [3]?
Result: no binding

Does B7 bind (monomeric Aβ)?
Result: no binding

B8: C10 (hybridoma-purified mAb) (antibody, V domains shown)
VH: B2 VH
VL: B7 VL
notes: also called purified clone C10
Does B8 bind [2]?
Result: no binding

Does B8 bind [3]?
Result: no binding

Does B8 bind (monomeric Aβ)?
Result: no binding
